The record followed here is article PMC9279676, “ERK2 MAP kinase regulates SUFU binding by multisite phosphorylation of GLI1” (Life Science Alliance, 2022).

Positions count from the first letter of the chain named.

The target of assay [1] is T1, GLI1_(1-232) S116E S130E, 35S-radiolabeled (human, UniProt P08151-1 1-232, S116E | S130E, [35S]-methionine label).
T1 sequence: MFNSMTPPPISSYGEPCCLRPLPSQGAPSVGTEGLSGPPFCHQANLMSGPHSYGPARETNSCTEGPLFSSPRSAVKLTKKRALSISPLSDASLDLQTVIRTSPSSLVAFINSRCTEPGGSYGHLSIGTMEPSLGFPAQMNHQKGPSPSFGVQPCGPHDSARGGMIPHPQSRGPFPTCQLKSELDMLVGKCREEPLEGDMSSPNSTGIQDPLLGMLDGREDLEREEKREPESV

Assay [2] concerns the target T2, GLI1_(1-232) S116E, 35S-radiolabeled (human, UniProt P08151-1 1-232, S116E, [35S]-methionine label).
T2 sequence: T1 sequence with E130S

Assay [3] concerns the target T3, GLI1_(1-232) S102E S116E S130E, 35S-radiolabeled (human, UniProt P08151-1 1-232, S102E | S116E | S130E, [35S]-methionine label).
T3 sequence: T1 sequence with S102E

Assay [4] has as its target T4, GLI1_(1-232) S102E S130E, 35S-radiolabeled (human, UniProt P08151-1 1-232, S102E | S130E, [35S]-methionine label).
T4 sequence: T1 sequence with S102E, E116S

The target in assay [5] is T5, full-length GLI1 S102E S116E S130E, 35S-radiolabeled (human, UniProt P08151-1 1-1106, S102E | S116E | S130E, [35S]-methionine label).
T5 construct: human GLI1, full length (1,106 residues); also called FL-GLI1^EEE; GLI1^EEE; source: in vitro transcription/translation, partially purified by ammonium sulfate precipitation
T5 sequence (looked up): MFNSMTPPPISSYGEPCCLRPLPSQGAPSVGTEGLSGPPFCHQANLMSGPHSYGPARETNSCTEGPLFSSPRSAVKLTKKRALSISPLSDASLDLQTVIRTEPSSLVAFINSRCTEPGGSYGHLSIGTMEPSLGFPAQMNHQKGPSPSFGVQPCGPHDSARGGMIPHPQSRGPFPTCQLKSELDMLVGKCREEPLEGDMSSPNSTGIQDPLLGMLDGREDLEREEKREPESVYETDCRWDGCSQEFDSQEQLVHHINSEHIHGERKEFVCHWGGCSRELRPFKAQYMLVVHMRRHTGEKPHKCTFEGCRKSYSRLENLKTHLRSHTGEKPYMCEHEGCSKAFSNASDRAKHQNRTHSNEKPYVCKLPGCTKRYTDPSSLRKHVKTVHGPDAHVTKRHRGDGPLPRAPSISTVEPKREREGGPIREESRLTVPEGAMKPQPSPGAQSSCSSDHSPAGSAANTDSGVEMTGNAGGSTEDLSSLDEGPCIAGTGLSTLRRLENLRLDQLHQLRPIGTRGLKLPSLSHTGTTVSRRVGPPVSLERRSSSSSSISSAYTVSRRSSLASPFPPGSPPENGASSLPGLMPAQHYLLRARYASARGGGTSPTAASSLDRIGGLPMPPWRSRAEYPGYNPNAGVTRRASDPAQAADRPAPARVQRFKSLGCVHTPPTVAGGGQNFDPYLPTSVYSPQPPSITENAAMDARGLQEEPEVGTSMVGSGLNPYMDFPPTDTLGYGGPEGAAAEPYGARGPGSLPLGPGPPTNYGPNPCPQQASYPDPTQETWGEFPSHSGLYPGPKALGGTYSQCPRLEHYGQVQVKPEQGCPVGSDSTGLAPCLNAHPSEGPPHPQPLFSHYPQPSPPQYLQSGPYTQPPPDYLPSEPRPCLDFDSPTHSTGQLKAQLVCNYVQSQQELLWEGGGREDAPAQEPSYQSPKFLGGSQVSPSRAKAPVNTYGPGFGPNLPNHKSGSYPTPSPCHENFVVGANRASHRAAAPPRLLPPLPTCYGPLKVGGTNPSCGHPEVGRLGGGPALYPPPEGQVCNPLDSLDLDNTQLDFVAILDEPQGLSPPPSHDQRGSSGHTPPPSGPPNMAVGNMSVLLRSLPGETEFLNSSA
The experiment in a line: pull-down; purified GST-SUFU, 1.25-80 nM, captured on glutathione-Sepharose beads; ∼1 pmol 35S-GLI1 (1-232 or full length) in 200 μl; 15 min at 30°C, then 1 h at room temperature; Binding Buffer + 1 mg/ml BSA; bound GLI1 quantified by SDS-PAGE and Phosphorimager; Kd from binding isotherms. The conditions noted are these: one partner purified.

B1: GST-SUFU (fusion of GST to full-length human SUFU) (natural protein, UniProt Q9UMX1-1 1-484, looked up)
chain: MAELRPSGAPGPTAPPAPGPTAPPAFASLFPPGLHAIYGECRRLYPDQPNPLQVTAIVKYWLGGPDPLDYVSMYRNVGSPSANIPEHWHYISFGLSDLYGDNRVHEFTGTDGPSGFGFELTFRLKRETGESAPPTWPAELMQGLARYVFQSENTFCSGDHVSWHSPLDNSESRIQHMLLTEDPQMQPVQTPFGVVTFLQIVGVCTEELHSAQQWNGQGILELLRTVPIAGGPWLITDMRRGETIFEIDPHLQERVDKGIETDGSNLSGVSAKCAWDDLSRPPEDDEDSRSICIGTQPRRLSGKDTEQIRETLRRGLEINSKPVLPPINPQRQNGLAHDRAPSRKDSLESDSSTAIIPHELIRTRQLESVHLKFNQESGALIPLCLRGRLLHGRHFTYKSITGDMAITFVSTGVEGAFATEEHPYAAHGPWLQILLTEEFVEKMLEDLEDLTSPEEFKLPKEYSWPEKKLKVSILPDVVFDSPLH
notes: human SUFU, full length (residues 1-484), BamHI-SUFU-SalI cassette in pGEX-LB; pGEX-LB carries a Gly-Gly-Gly-Gly-Gly-Ser-Gly stretch between GST and the fused protein; also called full-length GST-SUFU; source: Escherichia coli, purified (glutathione-Sepharose); not shown: GST, N-terminal, kept
As a reminder, the Kd is the concentration at which binding is half-saturated. Regarding B1, the Kd was determined as 19 nM in assay [1]; 7 nM in assay [2]; 520 nM in assay [3]; 300 nM in assay [4]; 42 ± 8 nM in assay [5].
